The record followed here is article PMC2788773 (Molecular cell, 2009).

Positions count from the first letter of the chain named.

Holding throughout (test): pull-down
The target of assay [1] is T1, His6-S-Rad54-T132D (S. cerevisiae (budding yeast), UniProt P32863 1-898, T132D).
T1 sequence (looked up): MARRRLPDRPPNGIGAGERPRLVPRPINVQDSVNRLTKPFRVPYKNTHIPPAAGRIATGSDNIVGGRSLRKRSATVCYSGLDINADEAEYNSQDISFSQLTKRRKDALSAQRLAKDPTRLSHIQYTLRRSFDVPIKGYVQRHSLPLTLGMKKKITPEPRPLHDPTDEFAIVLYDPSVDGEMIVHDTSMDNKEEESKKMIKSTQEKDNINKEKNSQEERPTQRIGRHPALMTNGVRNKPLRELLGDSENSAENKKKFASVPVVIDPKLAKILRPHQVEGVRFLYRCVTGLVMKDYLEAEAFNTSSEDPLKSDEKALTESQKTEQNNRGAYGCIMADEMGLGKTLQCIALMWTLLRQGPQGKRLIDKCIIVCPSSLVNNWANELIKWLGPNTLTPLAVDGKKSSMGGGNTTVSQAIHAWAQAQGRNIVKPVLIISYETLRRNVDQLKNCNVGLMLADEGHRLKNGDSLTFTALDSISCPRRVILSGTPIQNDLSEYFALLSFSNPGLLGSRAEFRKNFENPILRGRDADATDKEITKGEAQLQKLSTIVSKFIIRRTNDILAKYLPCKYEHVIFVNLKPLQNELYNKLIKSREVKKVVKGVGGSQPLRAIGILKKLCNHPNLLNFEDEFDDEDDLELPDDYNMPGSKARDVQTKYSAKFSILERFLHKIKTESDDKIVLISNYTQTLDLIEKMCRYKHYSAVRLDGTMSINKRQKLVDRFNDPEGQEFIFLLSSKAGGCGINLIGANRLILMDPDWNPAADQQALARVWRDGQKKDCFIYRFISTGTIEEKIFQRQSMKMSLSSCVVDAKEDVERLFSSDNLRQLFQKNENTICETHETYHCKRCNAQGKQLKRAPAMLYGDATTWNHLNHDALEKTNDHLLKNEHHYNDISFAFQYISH

Assay [2] has as its target T2, His6-S-Rad54-T132A (S. cerevisiae (budding yeast), UniProt P32863 1-898, T132A).
T2 sequence (looked up): T1 sequence (looked up) with D132A

Assay [3] has as its target T3, His6-S-Rad54 (S. cerevisiae (budding yeast), UniProt P32863 1-898).
T3 sequence (looked up): T1 sequence (looked up) with D132T

B1: Rad51 (natural protein, S. cerevisiae (budding yeast), UniProt P25454 1-400, looked up)
chain: MSQVQEQHISESQLQYGNGSLMSTVPADLSQSVVDGNGNGSSEDIEATNGSGDGGGLQEQAEAQGEMEDEAYDEAALGSFVPIEKLQVNGITMADVKKLRESGLHTAEAVAYAPRKDLLEIKGISEAKADKLLNEAARLVPMGFVTAADFHMRRSELICLTTGSKNLDTLLGGGVETGSITELFGEFRTGKSQLCHTLAVTCQIPLDIGGGEGKCLYIDTEGTFRPVRLVSIAQRFGLDPDDALNNVAYARAYNADHQLRLLDAAAQMMSESRFSLIVVDSVMALYRTDFSGRGELSARQMHLAKFMRALQRLADQFGVAVVVTNQVVAQVDGGMAFNPDPKKPIGGNIMAHSSTTRLGFKKGKGCQRLCKVVDSPCLPEAECVFAIYEDGVGDPREEDE
Consider B1, for which the “fold reduction in Rad51 binding compared to Rad54” value in assay [1] turned out to be 2 fold. The binding result in assay [2] and in assay [3] was “binds” in each case.
